Our source for the binding result and Kd values is article PMC1635332.

In one series the target is T1, GA-1 DNA polymerase (Bacillus phage GA-1, UniProt Q96206 1-578).
T1 sequence: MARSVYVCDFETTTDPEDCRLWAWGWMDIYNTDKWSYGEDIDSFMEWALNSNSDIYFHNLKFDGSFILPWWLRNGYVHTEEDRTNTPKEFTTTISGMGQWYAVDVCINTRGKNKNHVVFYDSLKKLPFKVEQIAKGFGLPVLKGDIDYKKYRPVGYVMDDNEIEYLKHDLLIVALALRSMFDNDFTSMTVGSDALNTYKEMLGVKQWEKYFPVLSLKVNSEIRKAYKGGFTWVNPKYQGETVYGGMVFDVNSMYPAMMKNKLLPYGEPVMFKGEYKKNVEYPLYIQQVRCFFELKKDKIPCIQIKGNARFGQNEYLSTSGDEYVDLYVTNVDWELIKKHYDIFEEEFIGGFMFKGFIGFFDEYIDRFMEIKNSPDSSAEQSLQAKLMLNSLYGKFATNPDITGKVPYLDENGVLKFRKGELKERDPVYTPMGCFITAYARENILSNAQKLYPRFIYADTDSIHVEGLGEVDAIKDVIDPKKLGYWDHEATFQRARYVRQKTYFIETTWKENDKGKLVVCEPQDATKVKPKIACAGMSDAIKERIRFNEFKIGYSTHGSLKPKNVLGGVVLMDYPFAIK
Nature of the series: EMSA. On the technique in general: In EMSA bound probe runs differently from free probe, usually more slowly.

The next series has as its target T2, Nf DNA polymerase (Bacillus phage Nf, UniProt B7SSM2 1-572).
T2 sequence: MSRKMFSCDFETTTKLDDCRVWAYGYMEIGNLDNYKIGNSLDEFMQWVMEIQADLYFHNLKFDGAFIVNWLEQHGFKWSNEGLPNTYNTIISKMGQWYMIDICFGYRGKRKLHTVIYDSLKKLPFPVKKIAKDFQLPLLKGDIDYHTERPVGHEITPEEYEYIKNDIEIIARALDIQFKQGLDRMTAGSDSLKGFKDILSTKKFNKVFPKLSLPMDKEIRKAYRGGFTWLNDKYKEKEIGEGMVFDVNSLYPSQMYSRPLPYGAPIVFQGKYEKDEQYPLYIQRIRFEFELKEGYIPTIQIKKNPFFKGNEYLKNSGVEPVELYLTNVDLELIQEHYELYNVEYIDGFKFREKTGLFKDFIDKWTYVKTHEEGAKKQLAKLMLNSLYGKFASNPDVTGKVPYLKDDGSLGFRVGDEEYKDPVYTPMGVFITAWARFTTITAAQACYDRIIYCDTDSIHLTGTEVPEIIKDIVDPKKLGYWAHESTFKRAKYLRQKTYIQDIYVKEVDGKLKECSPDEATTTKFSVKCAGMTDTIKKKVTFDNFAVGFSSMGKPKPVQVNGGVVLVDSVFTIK
Nature of the series: EMSA.

In general, Kd refers to the free concentration of one partner at which half of the binding sites on the other are occupied at equilibrium, for simple one-to-one binding. A higher Kd goes with a looser complex.

B1: sp1/sp1c+6 (15/21mer primer/template) (dsDNA)
DNA 1: GATCACAGTGAGTAC
DNA 2: TCTATTGTACTCACTGTGATC
As to B1, the binding result with GA-1 DNA polymerase was “no binding”. The affinity with Nf DNA polymerase, expressed as Kd, was 1.5 nM.
